For experiment [1], the target named is T1, full length PLXDC1 (PLXDC1-Full) (Homo sapiens, UniProt Q8IUK5).
T1 construct: expressed in transfected cells
T1 sequence (Q8IUK5 19-500): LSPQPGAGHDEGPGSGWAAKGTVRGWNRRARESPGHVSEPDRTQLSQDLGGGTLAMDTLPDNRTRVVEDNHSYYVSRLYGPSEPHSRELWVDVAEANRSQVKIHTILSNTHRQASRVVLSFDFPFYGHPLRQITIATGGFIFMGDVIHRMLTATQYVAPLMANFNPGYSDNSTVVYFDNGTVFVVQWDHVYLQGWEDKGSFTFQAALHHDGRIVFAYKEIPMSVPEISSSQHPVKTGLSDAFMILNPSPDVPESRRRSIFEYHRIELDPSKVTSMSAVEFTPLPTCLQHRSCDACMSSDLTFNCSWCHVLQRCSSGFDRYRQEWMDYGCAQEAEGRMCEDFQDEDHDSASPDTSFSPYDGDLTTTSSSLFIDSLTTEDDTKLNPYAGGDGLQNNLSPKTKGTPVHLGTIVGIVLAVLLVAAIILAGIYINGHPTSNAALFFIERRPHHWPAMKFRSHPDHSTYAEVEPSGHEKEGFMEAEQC
The experiment is described as follows: Domain A binding specificity: binding to full length PLXDC1 expressed in transfected cells. Conditions: for binding to PLXDC1: antibodies of Table 3 tested for ability to bind Domain A; for binding to full length PLXDC1 (PLXDC1-Full): transfected into a cell line that does not express PLXDC1, FIG. 3-4. The source says:
(§1) The specific binding to Domain A of a PLXDC protein can be tested with a method described herein. In some embodiments, the method employs a PLXDC with the Domain A deleted. […] An example is Compound 369 as described above.
(§2) The Domain A-binding antibodies are 3-C11, 4-A8, 5-E2, 2-H2, 3-G6, 3-G7, 8-A7, 8-A9, 8-C9 and 8-D9.
(§3) Both full length PLXDC1 and Domain A deleted PLXDC1 (PLXDC1-dA) have an epitope tag on the N-terminus.

Experiment [2] addresses T2, Domain A-deleted PLXDC1 (PLXDC1-dA) (Homo sapiens, UniProt Q8IUK5).
T2 construct: expressed in transfected cells
In words: Domain A binding specificity: binding to Domain A-deleted PLXDC1 expressed in transfected cells. To be noted: for binding to PLXDC1 mutant with Domain A deleted: antibodies of Table 3 tested for ability to bind Domain A; for binding to Domain A-deleted PLXDC1 (PLXDC1-dA): transfected into a cell line that does not express PLXDC1, FIG. 3-4.
Source text: as §1, §2, §3

Experiment [3] concerns human lung tumor endothelial cells expressing PLXDC1. The experiment is described as follows: Ex vivo tumor angiogenesis model: killing of tumor endothelial cells. Conditions: signal day 1 vs day 8, 500 nM printed for 3-G7. In kind it is cell-based. The procedure: The following protocol describes the Ex Vivo Tumor Angiogenesis Model.
1. The day before the experiment, all necessary tools were sprayed with 70% ethanol and sterilized under UV light overnight, including blade, dissecting and micro-dissecting scissors and […]. 24-well dishes were placed at 4° C. to pre-chill plates and Matrigel was thawed, 24 hours before tumor dissection.
2. 70% ethanol was sprayed on working bench. Two sterile petri dishes were prepared with 10 ml sterile PBS. The following steps 3 and 4 are necessary for mouse tumor models. For fresh human tumor, steps 3 and 4 are skipped.
3. The tumor-bearing mice were euthanized. 70% ethanol was sprayed on the mouse and the tumor was removed using sterilized dissecting tools (avoid the fur). The tumor was rinsed in petri dish with sterile PBS to remove ethanol and fur. The tumor was transferred to a new petri dish with PBS for dissection. The dish is placed on ice.
4. […]
9. When the assay was ready to be analyzed for cell death (e.g., 48 hours after drug addition), the dye mixture was prepared by mixing 6 μl of green dye to stain live cells (5 mg/ml Fluorescein diacetate or FDA in DMSO) with 30 μl of red dye (2.5 mg/ml Propidium iodide or PI in PBS) to stain dead cells in an Eppendorf tube. […]
14. Taking pictures in the red and green channels would allow not only the recording of the results but also more accurate quantitation of the results. […]

Experiment [4] has as its system PLXDC1. The experiment is described as follows: Promotor activity in PLXDC1-expressing cells (activation of PLXDC signaling). In kind it is cell-based. The source says:
This example tested some of the identified antibodies for their activity in activating PLXDC signaling.

Experiment [5] deals with PLXDC1. The experiment is described as follows: Antibody binding to PLXDC1 with and without small molecule agonist compound 369 (FIG. 5).

Residue numbers refer to the chain shown, from its start.

B1: A005: VH SEQ ID NO:70, VL SEQ ID NO:71; Domain A-binding PLXDC1-activating antibody (antibody, V domains shown)
VH: QVQLVESGGGVVQPGRSLRLSCAASGFTFSDYGMHWVRQAPGKGLEWVAVISYDGSRKYYANSVKGRFTISRDNSKNTLYLQMNSLRAEDTAVYYCARGSYSDGFDVWGQGTLVTVSS
VL: DIQMTQSPSSLSASVGDRVTITCRASQSISRYLNWYQQKTGKAPKLLIYGASSLQSGVPSRFSGSGSGTDFTLTISSLQPEDFATYYCQQSYSTPYTFGQGTKVEIK
Turning to B1, in experiment [1], the “binding to PLXDC1” value is “able to bind PLXDC1” and the “binding to full length PLXDC1 (PLXDC1-Full)” value (shortened to “binding to full length PLXDC1”) is “only bound to full length PLXDC1”. Moreover, in experiment [2], the “binding to PLXDC1 mutant with Domain A deleted” value (shortened to “binding to PLXDC1 mutant”) is listed as “not the mutant with Domain A deleted” and the “binding to Domain A-deleted PLXDC1 (PLXDC1-dA)” value (shortened to “binding … (PLXDC1-dA)”) is “did not bind to Domain A-deleted PLXDC1”.

B2: A008: VH SEQ ID NO:116, VL SEQ ID NO:117; Domain A-binding PLXDC1-activating antibody (antibody, V domains shown)
VH: EVQLLESGGGLVQPGGSLRLSCAASGFTFSNYAMSWVRQAPGKGLEWVSAISGGGSRTYYADSVKGRFTISRDNSKNTLYLQMNSLRAEDTAVYYCAREARVLGYSLDYWGQGTLVTVSS
VL: B1 VL with S28R, S30G, R31K, T40P, G50A, T94Y, Y96L
For the molecule B2, the “binding to PLXDC1” value in experiment [1] is on record as “able to bind PLXDC1”. Further, the “binding to PLXDC1 mutant” value in experiment [2] is on record as “not the mutant with Domain A deleted”.

B3: A006: VH SEQ ID NO:72, VL SEQ ID NO:73; Domain A-binding PLXDC1-activating antibody (antibody, V domains shown)
VH: QVQLVQSGAEVKKPGSSVKVSCKASGGTFSTEYISWVRQAPGQGLEWMGRIIPVLGITNYAQKFQGRVTITADESTSTAYMELSSLRSEDTAVYYCARHLGPPYLVTYSHGFDVWGQGTLVTVSS
VL: EIVMTQSPATLSVSPGERATLSCRASQSLGTNLAWYQQKPGQAPRLLIYGASTRATGIPARFSGSGSGTEFTLTISSLQSEDFAVYYCQQYYEAPPTFGQGTKVEIK
Take B3: the “death of tumor endothelial cells expressing PLXDC1” value in experiment [3] is reported as “led to the death of tumor endothelial cells expressing PLXDC1”. Further, in experiment [4] (PLXDC1-expressing cells), the “promotor activity in PLXDC1-expressing cells” value was “activated the promotor activity”. For the same molecule, in experiment [4] (cells without PLXDC1), the “promotor activity in cells without PLXDC1” value is “not in cells without PLXDC1”. Moreover, in experiment [1], the “binding to PLXDC1” value is “able to bind PLXDC1” and the “binding to full length PLXDC1” value is recorded as “only bound to full length PLXDC1”. Besides, in experiment [2], the “binding to PLXDC1 mutant” value is given as “not the mutant with Domain A deleted” and the “binding … (PLXDC1-dA)” value is on record as “did not bind to Domain A-deleted PLXDC1”. Besides, the “affinity to PLXDC1 when compound 369 was added” value in experiment [5] (small molecule agonist compound 369 present, FIG. 5 upper curve) is on record as “greatly higher affinity”. Further, the “affinity to standalone PLXDC1” value in experiment [5] (without compound 369, FIG. 5 lower curve) was “low nM affinity”.

B4: A007: VH SEQ ID NO:112, VL SEQ ID NO:113; Domain A-binding PLXDC1-activating antibody (antibody, V domains shown)
VH: EVQLLESGGGLVQPGGSLRLSCAASGFTFRNYAMSWVRQAPGKGLEWVSSISGGGINTYYADSVKGRFTISRDNSKNTLYLQMNSLRAEDTAVYYCARVRSYSGPGYFDYWGQGTLVTVSS
VL: B3 VL with E17D, Q27R, L29V, G30S, T31S, E93N, A94W, P96L
For the molecule B4, in experiment [1], the “binding to PLXDC1” value was “able to bind PLXDC1” and the “binding to full length PLXDC1” value is “only bound to full length PLXDC1”. In addition, in experiment [2], the “binding to PLXDC1 mutant” value is on record as “not the mutant with Domain A deleted” and the “binding … (PLXDC1-dA)” value was “did not bind to Domain A-deleted PLXDC1”.

(Values after patent US20250333497A1, “ACTIVATING ANTIBODIES OF RECEPTOR PROTEINS PLXDC1 AND PLXDC2” (THE REGENTS OF THE UNIVERSITY OF CALIFORNIA, priority 2022, published 2025).)
